From patent US20150139990A1 (DAINIPPON SUMITOMO PHARMA, published 2015)

Tests used:
human CD81 mutant V169A = target: T1, human CD81 mutant V169A (human, UniProt P60033 1-236, limits assumed); test: ELISA
T1 construct: as m30; not shown: C-terminal V5 and 6xHis tags
T1 sequence: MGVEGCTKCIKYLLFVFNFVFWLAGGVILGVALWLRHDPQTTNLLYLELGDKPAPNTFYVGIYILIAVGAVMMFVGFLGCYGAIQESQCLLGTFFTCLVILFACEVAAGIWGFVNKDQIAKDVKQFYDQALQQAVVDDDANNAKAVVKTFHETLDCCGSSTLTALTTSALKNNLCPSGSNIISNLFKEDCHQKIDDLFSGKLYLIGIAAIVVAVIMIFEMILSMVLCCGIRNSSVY

[1] = target: T2, human CD81 on CD81-expressing cells (Jurkat E6.1, human PBMC, Ramos) (human, UniProt P60033 1-236); test: cell-based or functional assay
T2 sequence: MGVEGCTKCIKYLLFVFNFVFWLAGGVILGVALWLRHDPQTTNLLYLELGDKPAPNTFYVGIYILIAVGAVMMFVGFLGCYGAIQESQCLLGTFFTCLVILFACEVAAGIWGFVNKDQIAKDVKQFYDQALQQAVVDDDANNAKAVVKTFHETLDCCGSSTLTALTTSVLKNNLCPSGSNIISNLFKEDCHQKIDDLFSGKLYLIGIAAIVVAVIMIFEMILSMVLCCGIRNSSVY

human CD81 mutant V135A = target: T3, human CD81 mutant V135A (human, UniProt P60033 1-236, limits assumed); test: ELISA
T3 construct: as m30; not shown: C-terminal V5 and 6xHis tags
T3 sequence: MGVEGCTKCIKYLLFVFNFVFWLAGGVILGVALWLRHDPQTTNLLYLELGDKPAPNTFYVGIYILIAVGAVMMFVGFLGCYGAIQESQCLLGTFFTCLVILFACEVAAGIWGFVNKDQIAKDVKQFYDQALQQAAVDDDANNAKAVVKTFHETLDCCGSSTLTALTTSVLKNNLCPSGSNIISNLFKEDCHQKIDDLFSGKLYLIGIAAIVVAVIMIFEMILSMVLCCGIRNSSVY

human CD81 mutant A164T = target: T4, human CD81 mutant A164T (human, UniProt P60033 1-236, limits assumed); test: ELISA
T4 construct: as m30; not shown: C-terminal V5 and 6xHis tags
T4 sequence: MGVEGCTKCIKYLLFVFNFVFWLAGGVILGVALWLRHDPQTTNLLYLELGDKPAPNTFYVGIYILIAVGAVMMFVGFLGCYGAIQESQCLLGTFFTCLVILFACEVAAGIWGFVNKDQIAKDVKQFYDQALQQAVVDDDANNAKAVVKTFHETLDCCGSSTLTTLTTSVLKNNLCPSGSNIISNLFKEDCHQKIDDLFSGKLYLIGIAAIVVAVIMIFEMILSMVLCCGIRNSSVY

human CD81 mutant L165A = target: T5, human CD81 mutant L165A (human, UniProt P60033 1-236, limits assumed); test: ELISA
T5 construct: as m30; not shown: C-terminal V5 and 6xHis tags
T5 sequence: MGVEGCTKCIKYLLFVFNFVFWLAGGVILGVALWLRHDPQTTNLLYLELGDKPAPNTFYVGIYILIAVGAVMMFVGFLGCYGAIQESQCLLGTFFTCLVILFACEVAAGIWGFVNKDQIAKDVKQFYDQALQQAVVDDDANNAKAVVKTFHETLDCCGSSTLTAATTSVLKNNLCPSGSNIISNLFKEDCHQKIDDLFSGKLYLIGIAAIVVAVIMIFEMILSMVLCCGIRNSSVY

human CD81 mutant A164V = target: T6, human CD81 mutant A164V (human, UniProt P60033 1-236, limits assumed); test: ELISA
T6 construct: as m30; not shown: C-terminal V5 and 6xHis tags
T6 sequence: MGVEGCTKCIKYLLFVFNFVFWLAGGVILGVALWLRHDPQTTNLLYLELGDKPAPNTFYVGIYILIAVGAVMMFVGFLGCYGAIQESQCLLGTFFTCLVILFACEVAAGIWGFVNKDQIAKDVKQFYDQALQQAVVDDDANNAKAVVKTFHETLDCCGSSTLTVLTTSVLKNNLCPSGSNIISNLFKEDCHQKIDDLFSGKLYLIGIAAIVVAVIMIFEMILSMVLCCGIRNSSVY

human CD81 mutant V169L = target: T7, human CD81 mutant V169L (human, UniProt P60033 1-236, limits assumed); test: ELISA
T7 construct: as m30; not shown: C-terminal V5 and 6xHis tags
T7 sequence: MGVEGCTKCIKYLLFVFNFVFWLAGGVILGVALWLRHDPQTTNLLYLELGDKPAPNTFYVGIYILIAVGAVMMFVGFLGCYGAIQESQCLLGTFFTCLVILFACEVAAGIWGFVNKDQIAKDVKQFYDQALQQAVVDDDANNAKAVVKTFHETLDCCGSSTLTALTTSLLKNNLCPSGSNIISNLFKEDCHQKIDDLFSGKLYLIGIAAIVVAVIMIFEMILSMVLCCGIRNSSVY

Binder | relative binding affinity (human CD81 mutant V169A) [%] | Jurkat chemotaxis (% of control IgG4) at 0.001 µg/mL [1] [%] | Jurkat chemotaxis (% of control IgG4) at 0.01 µg/mL [1] [%] | Jurkat chemotaxis (% of control IgG4) at 0.1 µg/mL [1] [%] | Jurkat chemotaxis (% of control IgG4) at 1 µg/mL [1] [%] | Jurkat chemotaxis (% of control IgG4) at 10 µg/mL [1] [%] | relative binding affinity (human CD81 mutant V135A) [%] | relative binding affinity (human CD81 mutant A164T) [%] | relative binding affinity (human CD81 mutant L165A) [%] | relative binding affinity (human CD81 mutant A164V) [%] | relative binding affinity (human CD81 mutant V169L) [%]
001-B06 (antibody, human IgG4 S228P, lambda, V domains shown, IgG4 S228P) VH: EVQLLESGGGLVQPGGSLRLSCAASGFTFSSNYMSWVRQAPGKGLEWVSYISSSSTYTDYADSVKGRFTISRDNSKNTLYLQMNSLRAEDTAVYYCARYSYGRDTFDYWGQGTLVTVSS VL: QSVLTQPFSASGTPGQRVTISCTGSTSNIGAGYDTHWYQQLPGTAPKLLIYGNSNRPSGVPDRFSGSKSGTSASLAISGLRPEDEADYYCQSYDTSLSVWVFGGGTKLTVLG | < 20 | 102 | 91 | 35 | 3 | 3 | – | – | – | – | –
002-B07 (antibody, human IgG4 S228P, lambda, V domains shown, IgG4 S228P) VH: EVQLLESGGGLVQPGGSLRLSCAASGFTFSSNYMSWVRQAPGKGLEWVSYISSSSTYTDYADSVKGRFTISRDNSKNTLYLQMNSLRAEDTAVYYCARYSYGRDNFDYWGQGTLVTVSS VL: QSVLTQPSSASGTPGQRVTISCTGSTSNIGAGYDTHWYQQLPGTAPKLLIYGNSNRPSGVPDRFSGSKSGTSASLAISGLRSEDEADYYCQSYDTNLSGWVFGGGTKLTVLG | < 20 | 92 | 87 | 8 | 4 | -9 | < 20 | < 20 | < 20 | < 20 | < 20
002-H03 (antibody, human IgG4 S228P, lambda, V domains shown, IgG4 S228P) VH: EVQLLESGGGLVQPGGSLRLSCAASGFTFSSNYMSWVRQAPGKGLEWVSYISSSSTYTDYADSVKGRFTISRDNSKNTLYLQMNSLRAEDTAVYYCARYSYGRDNFDYWGQGTLVTVSS VL: QSVLTQPSSASGTPGQRVTISCTGSTSNIGAGYDTHWYQQLPGTAPKPLIYGNSNRPSGVPDRFSGSKSGTSASLAISGLRSEDEADYYCQSYDTNLSAWVFGGGTKLTVLG | < 20 | 106 | 89 | 13 | 0 | -3 | < 20 | < 20 | < 20 | < 20 | –
002-H02 (antibody, human IgG4 S228P, lambda, V domains shown, IgG4 S228P) VH: EVQLLESGGGLVQPGGSLRLSCAASGFTFSSNYMSWVRQAPGKGLEWVSYISSSSTYTDYADSVKGRFTISRDNSKNTLYLQMNSLRAEDTAVYYCARYSYGRDSFDYWGQGTLVTVSS VL: QSVLTQPSSASGTPGQRVTISCTGSTSNIGAGYGTHWYQQLPGTAPKLLIYGNSNRPSGVPDRFSGSKSGTSASLAISGLRSEDEADYYCQSYDTNLSVWVFGGGTKLTVLG | < 20 | 87 | 85 | -1 | -10 | -2 | < 20 | < 20 | < 20 | < 20 | < 20
002-D08 (antibody, human IgG4 S228P, lambda, V domains shown, IgG4 S228P) VH: EVQLLESGGGLVQPGGSLRLSCATSGFPFSSNYMSWVRQAPGKGLEWVSYISSSSTYSDYADSVKGRFSISRDNSKNTLYLQMNSLRAEDTAVYYCARYSYGRDNFDYWGQGTLVTVSS VL: QSVLTQPSSASGTPGQRVTISCTGSTSNIGAGYATHWYQQLPGTAPKLLIYGNSNRPSGVPDRFSGSKSGTSASLAISGLRSEDEADYYCQSYDTNLSVWVFGGGTKLTVLG | < 20 | 101 | 105 | 67 | 19 | 14 | < 20 | < 20 | < 20 | < 20 | –
002-D10 (antibody, human IgG4 S228P, lambda, V domains shown, IgG4 S228P) VH: EVQLLESGGGLVQPGGSLRLSCAASGFTFSSNYMSWVRQAPGKGPEWVSYISSSSTYTDYADSVKGRFTISRDNSKNTLYLQMNSLRAEDTAVYYCARYSYGRDNFDYWGQGTLVTVSS VL: QSVLTQPSSASGTPGQRVTISCTGSTSNIGAGYDTHWYQQLPGTAPKLLIYGNSNRPSGVPDRFSGSKSGTSASLAVSGLRSEDEAEYYCQSYDTNLSGWVFGGGTKLTVLG | < 20 | 97 | 87 | 34 | 6 | 10 | < 20 | < 20 | < 20 | < 20 | < 20
002-C09 (antibody, human IgG4 S228P, lambda, V domains shown, IgG4 S228P) VH: EVQLLESGGGLVQPGGSLRLSCAASGFTFSSNYMSWVRQAPGKGLEWVSYISSSSTYTDYADSVKGRFTISRDNSKNTLYLQMNSLRAEDTAVYYCARYSYGRDNFDYWGQGTLVTVSS VL: QSVLTQPASASGTPGQRVTISCTGSTSNIGAGYGTHWYQRLPGTAPKLLIYGNSNRPSGVPDRFSGSKSGTSASLAISGLRSEDEADYYCQSYDTNLSGWVFGGGTKLTVLG | < 20 | 101 | 82 | 15 | -1 | 11 | < 20 | < 20 | < 20 | < 20 | < 20
